Numbered stars: 1 amine (or outer) side, 2 acyl side, 3 side chain; on linkers, the order of the positions; unused ones are H or OH. Square brackets hold non-standard residues; d marks the D form. Side chains are listed from the residue outwards. Ends that are not written are not given here. * marks the point of attachment. C18 diacid = O=C(O)CCCCCCCCCCCCCCCCC(=O)*; γGlu = O=C(O)[C@H](CCC(=O)[*:2])N[*:1]; AEEA = NCCOCCOCC(=O)O; Aib = CC(C)(N)C(=O)O

15 molecules from US20130143798A1 (Novo Nordisk, published 2013) can be followed below.

Sequences and labels used below:
B1: N^ε17-([2-[2-[2-[[(4S)-5-hydroxy-4-[(18-hydroxy-18-oxooctadecanoyl)amino]5-oxopentanoyl]amino]ethoxy]ethoxy]acetyl]amino]ethoxy]ethoxy]acetyl]]) … (peptide)
peptide: HSQGTFTSDYSKYLDSK([AEEA-AEEA-γGlu-C18 diacid])RAQDFVQWLLNT
B2: N^α([Leu^27]Glucagonyl) … (peptide)
peptide: HSQGTFTSDYSKYLDSRRAQDFVQWLLNTK
modifications: C-terminal Lys (position 30): N-epsilon acylated with the substituent printed in the name
B3: N^ε29-([2-[2-[2-[[(4S)-5-hydroxy-4-[(18-hydroxy-18-oxooctadecanoyl)amino]5-oxopentanoyl]amino]ethoxy]ethoxy]acetyl]amino]ethoxy]ethoxy]acetyl]])[Leu^27,Lys^29]G … (peptide)
peptide: HSQGTFTSDYSKYLDSRRAQDFVQWLLNK([AEEA-AEEA-γGlu-C18 diacid])
modifications: not fully specified; printed as N^ε29-([2-[2-[2-[[(4S)-5-hydroxy-4-[(18-hydroxy-18-oxooctadecanoyl)amino]5-oxopentanoyl]amino]ethoxy]ethoxy]acetyl]amino]ethoxy]ethoxy]acetyl]])[Leu^27,Lys^29]Glucagon
B4: N^ε24-([2-[2-[2-[[(4S)-5-hydroxy-4-[(18-hydroxy-18-oxooctadecanoyl)amino]5-oxopentanoyl]amino]ethoxy]ethoxy]acetyl]amino]ethoxy]ethoxy]acetyl]])[Lys^24,Leu^27,S … (peptide)
peptide: HSQGTFTSDYSKYLDSRRAQDFVK([AEEA-AEEA-γGlu-C18 diacid])WLLST
B5: N^ε16-([2-[2-[2-[[(4S)-5-hydroxy-4-[(18-hydroxy-18-oxooctadecanoyl)amino]5-oxopentanoyl]amino]ethoxy]ethoxy]acetyl]amino]ethoxy]ethoxy]acetyl]]) … (peptide)
peptide: HSQGTFTSDYSKYLDK([AEEA-AEEA-γGlu-C18 diacid])RRAQDFVQWLLNT
B6: N^ε24-([2-[2-[2-[[(4S)-5-hydroxy-4-[(18-hydroxy-18-oxooctadecanoyl)amino]5-oxopentanoyl]amino]ethoxy]ethoxy]acetyl]amino]ethoxy]ethoxy]acetyl]]) … (peptide)
peptide: HSQGTFTSDYSRYLDSRRAQDFVK([AEEA-AEEA-γGlu-C18 diacid])WLLNT
B7: N^ε24-([2-[2-[2-[[2-[2-[2-[[(4S)-5-hydroxy-4-[(18-hydroxy-18-oxooctadecanoyl)amino]-5-oxopentanoyl]amino]ethoxy]ethoxy]acetyl]amino]ethoxy]ethoxy]acetyl]) … (peptide)
peptide: H[Aib]QGTFTSDYSKYLDERRAQDFVK([AEEA-AEEA-γGlu-C18 diacid])WLLNT-NH2
modifications: N-terminus assumed
SMILES: CC(C)C[C@H](NC(=O)[C@H](Cc1ccc(O)cc1)NC(=O)[C@H](CCCCN)NC(=O)[C@H](CO)NC(=O)[C@H](Cc1ccc(O)cc1)NC(=O)[C@H](CC(=O)O)NC(=O)[C@H](CO)NC(=O)[C@@H](NC(=O)[C@H](Cc1ccccc1)NC(=O)[C@@H](NC(=O)CNC(=O)[C@H](CCC(N)=O)NC(=O)C(C)(C)NC(=O)[C@@H](N)Cc1c[nH]cn1)[C@@H](C)O)[C@@H](C)O)C(=O)N[C@@H](CC(=O)O)C(=O)N[C@@H](CCC(=O)O)C(=O)N[C@@H](CCCNC(=N)N)C(=O)N[C@@H](CCCNC(=N)N)C(=O)N[C@@H](C)C(=O)N[C@@H](CCC(N)=O)C(=O)N[C@@H](CC(=O)O)C(=O)N[C@@H](Cc1ccccc1)C(=O)N[C@H](C(=O)N[C@@H](CCCCNC(=O)COCCOCCNC(=O)COCCOCCNC(=O)CC[C@H](NC(=O)CCCCCCCCCCCCCCCCC(=O)O)C(=O)O)C(=O)N[C@@H](Cc1c[nH]c2ccccc12)C(=O)N[C@@H](CC(C)C)C(=O)N[C@@H](CC(C)C)C(=O)N[C@@H](CC(N)=O)C(=O)N[C@H](C(N)=O)[C@@H](C)O)C(C)C
B8: N^α([Glu^16,Gln^17,Arg^20]Glucagonyl) … (peptide)
peptide: HSQGTFTSDYSKYLDEQRARDFVQWLMNTK([AEEA-AEEA-γGlu-C18 diacid])-NH2
modifications: N-terminus assumed
SMILES: CSCC[C@H](NC(=O)[C@H](CC(C)C)NC(=O)[C@H](Cc1c[nH]c2ccccc12)NC(=O)[C@H](CCC(N)=O)NC(=O)[C@@H](NC(=O)[C@H](Cc1ccccc1)NC(=O)[C@H](CC(=O)O)NC(=O)[C@H](CCCNC(=N)N)NC(=O)[C@H](C)NC(=O)[C@H](CCCNC(=N)N)NC(=O)[C@H](CCC(N)=O)NC(=O)[C@H](CCC(=O)O)NC(=O)[C@H](CC(=O)O)NC(=O)[C@H](CC(C)C)NC(=O)[C@H](Cc1ccc(O)cc1)NC(=O)[C@H](CCCCN)NC(=O)[C@H](CO)NC(=O)[C@H](Cc1ccc(O)cc1)NC(=O)[C@H](CC(=O)O)NC(=O)[C@H](CO)NC(=O)[C@@H](NC(=O)[C@H](Cc1ccccc1)NC(=O)[C@@H](NC(=O)CNC(=O)[C@H](CCC(N)=O)NC(=O)[C@H](CO)NC(=O)[C@@H](N)Cc1c[nH]cn1)[C@@H](C)O)[C@@H](C)O)C(C)C)C(=O)N[C@@H](CC(N)=O)C(=O)N[C@H](C(=O)N[C@@H](CCCCNC(=O)COCCOCCNC(=O)COCCOCCNC(=O)CC[C@H](NC(=O)CCCCCCCCCCCCCCCCC(=O)O)C(=O)O)C(N)=O)[C@@H](C)O
B9: N^α([Glu^16,Gln^17,Ala^18,Arg^20]Glucagonyl) … (peptide)
peptide: HSQGTFTSDYSKYLDEQAARDFVQWLMNTK([AEEA-AEEA-γGlu-C18 diacid])-NH2
modifications: N-terminus assumed
SMILES: CSCC[C@H](NC(=O)[C@H](CC(C)C)NC(=O)[C@H](Cc1c[nH]c2ccccc12)NC(=O)[C@H](CCC(N)=O)NC(=O)[C@@H](NC(=O)[C@H](Cc1ccccc1)NC(=O)[C@H](CC(=O)O)NC(=O)[C@H](CCCNC(=N)N)NC(=O)[C@H](C)NC(=O)[C@H](C)NC(=O)[C@H](CCC(N)=O)NC(=O)[C@H](CCC(=O)O)NC(=O)[C@H](CC(=O)O)NC(=O)[C@H](CC(C)C)NC(=O)[C@H](Cc1ccc(O)cc1)NC(=O)[C@H](CCCCN)NC(=O)[C@H](CO)NC(=O)[C@H](Cc1ccc(O)cc1)NC(=O)[C@H](CC(=O)O)NC(=O)[C@H](CO)NC(=O)[C@@H](NC(=O)[C@H](Cc1ccccc1)NC(=O)[C@@H](NC(=O)CNC(=O)[C@H](CCC(N)=O)NC(=O)[C@H](CO)NC(=O)[C@@H](N)Cc1c[nH]cn1)[C@@H](C)O)[C@@H](C)O)C(C)C)C(=O)N[C@@H](CC(N)=O)C(=O)N[C@H](C(=O)N[C@@H](CCCCNC(=O)COCCOCCNC(=O)COCCOCCNC(=O)CC[C@H](NC(=O)CCCCCCCCCCCCCCCCC(=O)O)C(=O)O)C(N)=O)[C@@H](C)O
B10: N^ε24-([2-[2-[2-[[(4S)-5-hydroxy-4-[(18-hydroxy-18-oxooctadecanoyl)amino]5-oxopentanoyl]amino]ethoxy]ethoxy]acetyl]amino]ethoxy]ethoxy]acetyl]])[Lys^24,Leu^27,T … (peptide)
peptide: HSQGTFTSDYSKYLDSRRAQDFVK([AEEA-AEEA-γGlu-C18 diacid])WLLTT
B11: N^α-(N^ε24-[2-[2-[2-[[(4S)-5-hydroxy-4-[(18-hydroxy-18-oxo-octadecanoyl)amino]-5-oxo-pentanoyl]amino]ethoxy]ethoxy]acetyl][D-Ser^2, Lys^20]Glucagonyl) Lysinyl … (peptide)
peptide: H[dS]QGTFTSDYSKYLDSRRAKDFVQWLMNTK-NH2
modifications: not fully specified
B12: N^ε18-([2-[2-[2-[[(4S)-5-hydroxy-4-[(18-hydroxy-18-oxooctadecanoyl)amino]5-oxopentanoyl]amino]ethoxy]ethoxy]acetyl]amino]ethoxy]ethoxy]acetyl]])[Lys^18,Leu^27]G … (peptide)
peptide: HSQGTFTSDYSKYLDSRK([AEEA-AEEA-γGlu-C18 diacid])AQDFVQWLLNT
B13: N^ε24([2-[2-[2-[[(4S)-5-hydroxy-4-[(18-hydroxy-18-oxooctadecanoyl)amino]5-oxopentanoyl]amino]ethoxy]ethoxy]acetyl]amino]ethoxy]ethoxy]acetyl]])[Glu^21,Lys^24,Le … (peptide)
peptide: HSQGTFTSDYSKYLDSRRAQEFVK([AEEA-AEEA-γGlu-C18 diacid])WLLNT
B14: N^ε24-([2-[2-[2-[[(4S)-5-hydroxy-4-[(18-hydroxy-18-oxooctadecanoyl)amino]5-oxopentanoyl]amino]ethoxy]ethoxy]acetyl]amino]ethoxy]ethoxy]acetyl]])[D-Ser^2,Glu^16, … (peptide)
peptide: H[dS]QGTFTSDYSKYLDERRAQDFVK([AEEA-AEEA-γGlu-C18 diacid])WLLNT
B15: N^ε24-([2-[2-[2-[[(4S)-5-hydroxy-4-[(18-hydroxy-18-oxooctadecanoyl)amino]5-oxopentanoyl]amino]ethoxy]ethoxy]acetyl]amino]ethoxy]ethoxy]acetyl]]) … (peptide)
peptide: HSQGTFTSDYSKYLDTRRAQDFVK([AEEA-AEEA-γGlu-C18 diacid])WLLST

In the assay the target is glucagon receptor (UniProt P47871 26-477, limits assumed). Put plainly: cell-based or functional assay.
glucagon receptor, sequence (P47871 26-477 limits assumed): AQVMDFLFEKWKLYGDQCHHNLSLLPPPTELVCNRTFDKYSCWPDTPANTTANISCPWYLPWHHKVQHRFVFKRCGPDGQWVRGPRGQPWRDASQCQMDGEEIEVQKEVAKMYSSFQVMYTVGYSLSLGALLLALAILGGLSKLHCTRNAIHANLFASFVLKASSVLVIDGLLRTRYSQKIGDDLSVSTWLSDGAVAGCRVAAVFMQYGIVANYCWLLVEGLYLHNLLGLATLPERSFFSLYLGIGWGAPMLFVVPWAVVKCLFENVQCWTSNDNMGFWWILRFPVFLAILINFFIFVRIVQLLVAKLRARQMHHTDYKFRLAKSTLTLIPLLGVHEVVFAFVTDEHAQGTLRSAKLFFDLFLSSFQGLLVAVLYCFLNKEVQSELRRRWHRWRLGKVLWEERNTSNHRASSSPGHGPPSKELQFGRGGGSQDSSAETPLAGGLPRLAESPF
On to B1, for which the “Assay (I) Glucagon [EC50]” value stood at 0.094 nM.

Consider B2, for which the “Assay (I) Glucagon [EC50]” value came out at 0.019 nM.

B3: the “Assay (I) Glucagon [EC50]” value stood at 0.046 nM.

Take B4: the “Assay (I) Glucagon [EC50]” value came to 0.02 nM.

Turning to B5, the “Assay (I) Glucagon [EC50]” value worked out at 0.003 nM.

For B6, the “Assay (I) Glucagon [EC50]” value stood at 0.109 nM.

On to B7, for which the “Assay (I) Glucagon [EC50]” value was 0.135 nM.

Take B8: the “Assay (I) Glucagon [EC50]” value is 0.192 nM.

Consider B9, for which the “Assay (I) Glucagon [EC50]” value came to 0.406 nM.

As for B10, the “Assay (I) Glucagon [EC50]” value was found to be 0.024 nM.

With B11, the “Assay (I) Glucagon [EC50]” value is 0.54 nM.

For B12, the “Assay (I) Glucagon [EC50]” value is 0.206 nM.

Regarding B13, the “Assay (I) Glucagon [EC50]” value came out at 0.021 nM.

On to B14, for which the “Assay (I) Glucagon [EC50]” value is 0.149 nM.

Turning to B15, the “Assay (I) Glucagon [EC50]” value turned out to be 0.016 nM.
